How the values were obtained:
[1] = biological target: T1, rHuman EGF R/Fc Chimera, CF (R&D Systems Cat#344-ER) (human, UniProt P00533 25-645); test: MSD Multispot ECL, antigen spotted on plate, Fab 130 nM; blank spot 1153
T1 construct: Bought reagent; also called epidermal growth factor receptor; Fc part of the bought chimera not given

[2] = biological target: T2, rHuman HGF R/c-MET/Fc Chimera, CF (R&D Systems Cat#358-MT/CF) (human, UniProt P08581 25-932); test: as above
T2 construct: Bought reagent; also called HGF R/Fc; hepatocyte growth factor receptor; Fc part of the bought chimera not given

[3] = biological target: T3, rHuman ErbB2/Fc Chimera, CF (R&D Systems Cat#1129-ER) (human, UniProt P04626 23-652); test: as above
T3 construct: Bought reagent; also called human epidermal growth factor 2 receptor; Fc part of the bought chimera not given

[4] = biological target: T4, rHuman Notch-1/Fc Chimera, CF (R&D Systems Cat#3647-TK) (human, UniProt P46531 19-526); test: as above
T4 construct: Bought reagent; Fc part of the bought chimera not given

[5] = biological target: T5, rHuman IGF-1 sR, (IGF-1 sR), CF (R&D Systems Cat#391-GR) (human, UniProt P08069 31-932); test: as above
T5 construct: Bought soluble receptor; also called insulin-like growth factor-1 soluble receptor

[6] = biological target: T6, Recombinant Human DLL4 (R&D Systems Cat#1506-D4/CF) (human, UniProt Q9NR61 27-529); test: as above
T6 construct: Bought recombinant protein; also called rHuman DLL4; delta-like protein 4

[7] = biological target: T7, rHuman CD44/Fc Chimera, CF (R&D Systems Cat#3660-CD) (human, UniProt P16070 21-220); test: ECL Multispot (MSD), antigen spotted; Fab 5 (µM); blank 211
T7 construct: Bought recombinant protein; Fc part of the bought chimera not given

[8] = biological target: T8, rHuman EGF R/Fc Chimera, CF (R&D Systems Cat#344-ER) (human, UniProt P00533 25-645); test: as above
T8 construct: Bought recombinant protein; Fc part of the bought chimera not given

[9] = biological target: T9, rHuman IGF-1 sR, CF (R&D Systems Cat#391-GR) (human, UniProt P08069 31-932); test: as above
T9 construct: Bought recombinant soluble receptor; also called insulin-like growth factor-1 soluble receptor

[10] = biological target: T10, rHuman Erythropoietin R/Fc Chimera, CF (R&D Systems Cat#963-ER) (human, UniProt P19235 25-250); test: as above
T10 construct: Bought recombinant protein; also called EPO R; EPO R/Fc; Fc part of the bought chimera not given
T10 sequence (looked up): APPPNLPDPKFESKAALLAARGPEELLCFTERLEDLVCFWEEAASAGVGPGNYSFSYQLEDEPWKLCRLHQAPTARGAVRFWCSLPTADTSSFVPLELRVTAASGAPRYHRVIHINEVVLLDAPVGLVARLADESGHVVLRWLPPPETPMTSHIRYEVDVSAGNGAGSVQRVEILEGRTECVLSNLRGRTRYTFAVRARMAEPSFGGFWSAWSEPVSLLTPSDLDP

[11] = biological target: T11, rHuman HGF R/c-MET/Fc Chimera, CF (R&D Systems Cat#358-MT/CF) (human, UniProt P08581 25-932); test: as above
T11 construct: Bought recombinant protein; also called HGF R/Fc; Fc part of the bought chimera not given

[12] = biological target: T12, rHuman Notch-1/Fc Chimera, CF (R&D Systems Cat#3647-TK) (human, UniProt P46531 19-526); test: as above
T12 construct: Bought recombinant protein; Fc part of the bought chimera not given

[13] = biological target: T13, rHuman ErbB2/Fc Chimera, CF (R&D Systems Cat#1129-ER) (human, UniProt P04626 23-652); test: as above
T13 construct: Bought recombinant protein; Fc part of the bought chimera not given

[14] = biological target: T14, rHuman P-Cadherin/Fc Chimera, CF (R&D Systems Cat#861-PC) (human, UniProt P22223 108-654); test: as above
T14 construct: Bought recombinant protein; Fc part of the bought chimera not given

[15] = biological target: T15, Recombinant Human DLL4 (R&D Systems Cat#1506-D4/CF) (human, UniProt Q9NR61 27-529); test: as above
T15 construct: Bought recombinant protein; also called delta-like protein 4; rHuman DLL4

[16] = biological target: T16, rHuman Notch-1/Fc Chimera, CF (R&D Systems Cat#3647-TK) (human, UniProt P46531 19-526); test: Multispot ECL (MSD) titration; antigen spotted on plate; Fab 232.5 nM; blank spot 460
T16 construct: Bought Fc chimera; Fc part of the bought chimera not given

[17] = biological target: T17, rHuman ErbB2/Fc Chimera, CF (R&D Systems Cat#1129-ER) (human, UniProt P04626 23-652); test: as above
T17 construct: Bought Fc chimera; also called human epidermal growth factor 2 receptor; Fc part of the bought chimera not given

[18] = biological target: T18, rHuman IGF-1 sR (IGF-1 sR), CF (R&D Systems Cat#391-GR) (human, UniProt P08069 31-932); test: as above
T18 construct: Bought soluble receptor; also called insulin-like growth factor-1 soluble receptor

[19] = biological target: T19, Recombinant Human DLL4 (R&D Systems Cat#1506-D4/CF) (human, UniProt Q9NR61 27-524); test: as above
T19 construct: Bought recombinant protein; also called delta-like protein 4; rHuman DLL4

B1: Fab VH1-8_IGHD2-2*01_IGHJ6*01 & L12_IGKJ1*01 (Fab, V domains shown)
VH: QVQLVQSGAEVKKPGASVKVSCKASGYTFTSYDINWVRQATGQGLEWMGWMNPNSGNTGYAQKFQGRVTMTRNTSISTAYMELSSLRSEDTAVYYCARGGYCSSTSCYADYYYYYGMDVWGQGTTVTVSS
VL: not shown
[1]
  ECL signal: 1750
[2]
  ECL signal: 1880
[3]
  ECL signal: 1530
[4]
  ECL signal: 1760
[5]
  ECL signal: 1970
[6]
  ECL signal: 7740

B2: Fab VH1-46_IGHD6-6*01_IGHJ1*01 S102A/S103P/S104F (APF) & L6_IGKJ1*01 (Fab, V domains shown)
VH: QVQLVQSGAEVKKPGASVKVSCKASGYTFTSYYMHWVRQAPGQGLEWMGIINPSGGSTSYAQKFQGRVTMTRDTSTSTVYMELSSLRSEDTAVYYCAREEYAPFSAEYFQHWGQGTLVTVSS
VL: not shown
notes: Tested as a Fab made in E. coli: VH cloned in Plasmid A (CH1 constant region, His6 and Flag tags), VL in Plasmid C (kappa constant region); also called H:APF & L:wt; APF triple mutant
[7]
  ECL signal: 343
[8]
  ECL signal: 356
[9]
  ECL signal: 300
[10]
  ECL signal: 423
[11]
  ECL signal: 309
[12]
  ECL signal: 338
[13]
  ECL signal: 401
[14]
  ECL signal: 547
[15]
  ECL signal: 54900

B3: Fab VH1-46_IGHD6-13*01_IGHJ4*01 & O1_IGKJ1*01 (Fab, V domains shown)
VH: QVQLVQSGAEVKKPGASVKVSCKASGYTFTSYYMHWVRQAPGQGLEWMGIINPSGGSTSYAQKFQGRVTMTRDTSTSTVYMELSSLRSEDTAVYYCAREGYSSSWYDYFDYWGQGTLVTVSS
VL: DIVMTQTPLSLPVTPGEPASISCRSSQSLLDSDDGNTYLDWYLQKPGQSPQLLIYTLSYRASGVPDRFSGSGSGTDFTLKISRVEAEDVGVYYCMQRIEFPSWTFGQGTKVEIKR
notes: Germline library Fab expressed in E. coli; VH was cloned into Plasmid A (CH1 constant region, His6 and Flag tags); The kappa VL was cloned into Plasmid C (kappa CL)
[16]
  ECL signal: 778
[17]
  ECL signal: 779
[18]
  ECL signal: 569
[19]
  ECL signal: 3590

Reference: patent US20120316071A1 (published 2012)
